This data set deals with the molecule itself. The experiment in a line: native gel or EMSA. (In general: A gel shift assay detects complexes by their altered migration in electrophoresis.)

Values joined by “and” are separate entries in the source; they are usually repeats but may differ in a detail not shown here. Equal values may be shown once.

Experimental findings from doi:10.1101/430835 (bioRxiv, 2019) are described below.

B1: Uncoupling protein 2 (UCP2) (natural protein, human, UniProt P55851 1-309, looked up)
chain: MVGFKATDVPPTATVKFLGAGTAACIADLITFPLDTAKVRLQIQGESQGPVRATASAQYRGVMGTILTMVRTEGPRSLYNGLVAGLQRQMSFASVRIGLYDSVKQFYTKGSEHASIGSRLLAGSTTGALAVAVAQPTDVVKVRFQAQARAGGGRRYQSTVNAYKTIAREEGFRGLWKGTSPNVARNAIVNCAELVTYDLIKDALLKANLMTDDLPCHFTSAFGAGFCTTVIASPVDVVKTRYMNSALGQYSSAGHCALTMLQKEGPRAFYKGFMPSFLRLGSWNVVMFVTYEQLKRALMAACTSREAPF
A word on the stoichiometry N: it is a count of units in the complex or per binding partner. For the protein B1, the “stoichiometry N” value is 2 and 4.

B2: bovine ADP/ATP carrier protein isoform 1 (AAC1) (natural protein)
chain: SDQALSFLKDFLAGGVAAAISKTAVAPIERVKLLLQVQHASKQISAEKQYKGIIDCVVRIPKEQGFLSFWRGNLANVIRYFPTQALNFAFKDKYKQIFLGGVDRHKQFWRYFAGNLASGGAAGATSLCFVYPLDFARTRLAADVGKGAAQREFTGLGNCITKIFKSDGLRGLYQGFNVSVQGIIIYRAAYFGVYDTAKGMLPDPKNVHIIVSWMIAQTVTAVAGLVSYPFDTVRRRMMMQSGRKGADIMYTGTVDCWRKIAKDEGPKAFFKGAWSNVLRGMGGAFVLVLYDEIKKFV
Turning to B2, the “stoichiometry N” value worked out at 2.
